Sequences and labels used below:
T1: His-PDK1_(50-359) [PRK2-pocket] (UniProt O15530 50-359, K76Q | I119V | V127L | T128M | R131K | T148C | L155V)
T1 construct: also called PDK1 [PRK2-pocket]; His-PDK1 [PIF-pocket PRK2]; source: Sf9 (Bac-to-Bac), purified (nickel-nitrilotriacetic acid, gel filtration)
T1 sequence (looked up): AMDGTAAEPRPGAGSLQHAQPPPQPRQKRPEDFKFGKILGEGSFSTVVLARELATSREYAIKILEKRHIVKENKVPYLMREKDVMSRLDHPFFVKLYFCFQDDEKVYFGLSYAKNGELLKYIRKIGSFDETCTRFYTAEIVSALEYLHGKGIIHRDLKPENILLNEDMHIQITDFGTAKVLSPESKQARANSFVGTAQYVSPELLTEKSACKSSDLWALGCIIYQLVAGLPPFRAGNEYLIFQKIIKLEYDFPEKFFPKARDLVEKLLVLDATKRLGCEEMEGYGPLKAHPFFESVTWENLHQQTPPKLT

B1: biotin-PKLtide (peptide)
peptide: Biotin-PKLQRQKKIFSKQQG
notes: polypeptide comprising the pseudosubstrate PKL region of PRK2; source: synthetic peptide (JPT Peptide Technologies)
B2: GST-PRK2_(643-984) WT (domain or fragment)
chain: not shown
modifications: phosphorylated at the activation loop (Thr816 in PRK2)
notes: PKC-related kinase 2 (PRK2/PKN2), catalytic domain with the C-terminal PIF/HM region, lacking the N-terminal 642 residues; also called isolated catalytic domain of PRK2; GST-PRK2 CD WT; source: HEK293T, transient transfection (pEBG2T-derived plasmid), purified
B3: GST-PRK2_(643-984) [T958A] (domain or fragment)
chain: not shown
modifications: phosphorylated at the activation loop (Thr816 in PRK2)
notes: source: HEK293T, transient transfection (pEBG2T-derived plasmid), purified
B4: PIFtide (peptide)
peptide: REPRILSEEEQEMFRDFDYIADWC
notes: also called polypeptide PIF; HM polypeptide derived from the C terminus of PRK2; source: synthetic peptide (JPT Peptide Technologies)
B5: biotin-PIFtide (Cys → Ser) (peptide)
peptide: Biotin-REPRILSEEEQEMFRDFDYIADWS
notes: PIFtide, C-terminal region of PRK2, with the last Cys replaced by Ser; source: synthetic peptide (Pepscan)
B6: His-PDK1_(1-556) (enzyme, UniProt O15530 1-556, looked up)
chain: MARTTSQLYDAVPIQSSVVLCSCPSPSMVRTQTESSTPPGIPGGSRQGPAMDGTAAEPRPGAGSLQHAQPPPQPRKKRPEDFKFGKILGEGSFSTVVLARELATSREYAIKILEKRHIIKENKVPYVTRERDVMSRLDHPFFVKLYFTFQDDEKLYFGLSYAKNGELLKYIRKIGSFDETCTRFYTAEIVSALEYLHGKGIIHRDLKPENILLNEDMHIQITDFGTAKVLSPESKQARANSFVGTAQYVSPELLTEKSACKSSDLWALGCIIYQLVAGLPPFRAGNEYLIFQKIIKLEYDFPEKFFPKARDLVEKLLVLDATKRLGCEEMEGYGPLKAHPFFESVTWENLHQQTPPKLTAYLPAMSEDDEDCYGNYDNLLSQFGCMQVSSSSSSHSLSASDTGLPQRSGSNIEQYIHDLDSNSFELDLQFSEDEKRLLLEKQAGGNPWHQFVENNLILKMGPVDKRKGLFARRRQLLLTEGPHLYYVDPVNKVLKGEIPWSQELRPEAKNFKTFFVHTPNRTYYLMDPSGNAHKWCRKIQEVWRQRYQSHPDAAVQ
notes: also called full-length PDK1; His-PDK1 FL; source: Sf9 (Bac-to-Bac), purified (nickel-nitrilotriacetic acid, gel filtration)
B7: His-PDK1_(50-359) (domain or fragment, UniProt O15530 50-359, looked up)
chain: T1 sequence (looked up) with Q27K, V70I, L78V, M79T, K82R, C99T, V106L
notes: also called catalytic domain of PDK1; source: Sf9 (Bac-to-Bac), purified (nickel-nitrilotriacetic acid, gel filtration)

What all share (details): both partners purified
For test [1], the target named is B2. As to the kind of experiment: AlphaScreen or HTRF; GST-PRK2_(643-984) (1.5 nM) and biotin-PKLtide (75 nM) with varied compounds or 5% DMSO; anti-GST-coated acceptor beads and streptavidin-coated donor beads.
Test [2] deals with B6. In words: AlphaScreen or HTRF; His-PDK1 fixed at 20 nM against varied GST-PRK2 constructs; nickel chelate acceptor beads and glutathione donor beads; 50 mM Tris-HCl pH 7.4 (or 20 mM Hepes pH 7.5), 100 mM NaCl, 1 to 2 mM DTT, 0.01% Tween 20, 0.1% BSA; 90 min at room temperature.
For test [3], the target named is B6. As to the kind of experiment: AlphaScreen or HTRF; competitive displacement of His-PDK1 / GST-PRK2 [T958A] complexes by varied PIFtide; 30 to 40 nM PDK1 versus 5 to 10 nM PRK2; nickel chelate acceptor beads and glutathione donor beads.
Test [4] addresses B7. Described as above.
In test [5] the target is B7. As to the kind of experiment: AlphaScreen or HTRF; His-tagged PDK1 construct (30 nM) and biotin-PIFtide (Cys → Ser; 10 or 30 nM), cross-titration and displacement by small compounds; nickel chelate and streptavidin-coated beads.
For test [6], the target named is T1, His-PDK1_(50-359) [PRK2-pocket]. Described as above.
The target of another test is T2, GST-PRK2_(1-984) [T958A] (UniProt Q16513 1-984, T958A, phosphorylated at the activation loop (Thr816 in PRK2)).
T2 construct: also called full-length PRK2 T958A; source: HEK293T, transient transfection (pEBG2T-derived plasmid), purified
In words: AlphaScreen or HTRF; competitive displacement of His-PDK1 / GST-PRK2 [T958A] complexes by varied PIFtide; 30 to 40 nM PDK1 versus 5 to 10 nM PRK2; nickel chelate acceptor beads and glutathione donor beads.

The next test addresses T3, GST-PRK2_(1-984) WT (UniProt Q16513 1-984, phosphorylated at the activation loop (Thr816 in PRK2)).
T3 construct: also called full-length PRK2; PKN2; source: HEK293T, transient transfection (pEBG2T-derived plasmid), purified
In words: AlphaScreen or HTRF; His-PDK1 fixed at 20 nM against varied GST-PRK2 constructs; nickel chelate acceptor beads and glutathione donor beads; 50 mM Tris-HCl pH 7.4 (or 20 mM Hepes pH 7.5), 100 mM NaCl, 1 to 2 mM DTT, 0.01% Tween 20, 0.1% BSA; 90 min at room temperature.

The target in test [7] is B2. As to the kind of experiment: AlphaScreen or HTRF; His-PDK1 and GST-PRK2 at fixed concentrations (30 to 50 nM PDK1, 5 to 50 nM PRK2) with varied small compounds (PS210, GSK2334470, UCN-01, Y-27632); nickel chelate acceptor beads and glutathione donor beads.
The target in test [8] is B3. The description is as above.

Changes are numbered by the printed parent chain. Numbers in names are those of the source. No end group written: not given here. *: point of attachment. Biotin = O=C1N[C@H]2[C@H](CS[C@H]2CCCCC(=O)*)N1

With B1, the binding result with GST-PRK2_(643-984) WT [1] is given as “binds”.

For B2, the binding result in the test with His-PDK1_(1-556) [2] is on record as “binds”.

Turning to B3, the binding result with His-PDK1_(1-556) [3] is “binds”.

Consider B4, for which the binding result in the test with His-PDK1_(50-359) [4] and in the test with His-PDK1_(1-556) [3] was “binds” throughout.

As for B5, the binding result (in the test with His-PDK1_(50-359) [5]; in [6]) was “binds” in each case.

With B6, the binding result in the test with GST-PRK2_(1-984) [T958A] and with GST-PRK2_(1-984) WT was “binds” in each case.

Turning to B7, the binding result (in the test with GST-PRK2_(1-984) [T958A]; with GST-PRK2_(643-984) WT [7]; in test [8]; in the test with GST-PRK2_(1-984) WT) was “binds” in each case.

(Values after article PMC11357854, “Molecular insights into the regulatory landscape of PKC-related kinase-2 (PRK2/PKN2) using targeted small compounds” (The Journal of Biological Chemistry, 2024).)
